Assay: yeast display, Sf9 membrane polyspecificity reagent, FACS + sequencing; frameworks hold sequencing errors
In short: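 Nanobodies came from a synthetic yeast display library in Saccharomyces cerevisiae BJ5465, induced with galactose for 36–48 hours and stained for 1 hour at 4 °C with 10% biotinylated, detergent-solubilized Sf9 membrane reagent. Cells were enriched on streptavidin microbeads and then FACS-sorted, with low and high (top ~1%) gates set on anti-HA fluorescence for expression and streptavidin fluorescence for reagent binding. Each polyreactivity label reflects the gate a clone came from. Genes were amplified by colony PCR, sequenced by MiSeq 2 × 250 and filtered by CDR length.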
With “QVQLVESGVGLVQAGGSLRLICAASGSTFGVYAMGWYRQAPGKERELVARITSGGSTYYADSVKGRFTISRDNAKNTVYLQMNSLKPEDTAVYYCAAVYRRTRSWKFDYWGQGTQVTVSS” the “polyreactivity (PSR sort gate)” value was “high polyreactivity”.
For “QVQLVESGVGLVQAGGSLRLIWAASGRTFYRNVMGWYRQAPGKERELVAAISWSGGRTYYADSVKGRFTISRDNAKNTVYLQMNSLKPEDTAVYYCAARYRTLDGEVDYWGQGTQVTVSS”, the “polyreactivity (PSR sort gate)” value was “high polyreactivity”.
With “QVQLVESGVGLVQAGGSLRLRCAASARIFGWYTMGWNRQSPGKERELVADINFGGSTYYADSVKGRFTISRDNAKNTVYLLMKSLKSEYTAVFYCNADYSVYIIADEYDYWGQGTQVTVSS” the “polyreactivity (PSR sort gate)” value was “low polyreactivity”.
With “QVQLVESGVGLVQAGGSLRLRCAASGITFGTYPMGWYRQAPGKEREFVAGYYADSVKGRFTISRDNAKNTVYLQMNSLKPEDTAVYYCAADYLYHDDVDYWGQGTQVTVSS” the “polyreactivity (PSR sort gate)” value was “low polyreactivity”.
In the case of “QVQLVESGVGLVQAGGSLRLRCAASGSIFEGNGMGWYRQAPGKERELVASITRSGGSTYDADSVKGRFTISRDNAQNTVYVQMNSLKPEDTAVYYCAAKGTTYGLTIRWYPYLHGYNYWGQGTQVTVSS”, the “polyreactivity (PSR sort gate)” value is reported as “low polyreactivity”.
In the case of “QVQLVESGVGLVQAGGSLRLSCAASGFTFRRYAMGWYRQAPGKERELVAAITSSGGNTYYADSVKGRFTISRDNAKNTVYLQMNSLKPEDTAVYYCAKRAFYSSSYDYWGQGTQVSVSS”, the “polyreactivity (PSR sort gate)” value is reported as “high polyreactivity”.
For “QVQLVESGVGLVQAGGSLRLSCAASGIIFPGYVMGWYRQAPGKERELVAAISSGGRTYYADSVKGRFTISRDNAKNTVSLQMNSLKPEDTAVYYCAAGGRARTYYYWGQGTQVTVSS”, the “polyreactivity (PSR sort gate)” value was “high polyreactivity”.
For “QVQLVESGVGLVQAGGSLRLSCAASGIIFRSYAMGWYRQAPGKERELVAAITSSGGRTYYADSVKGRFTISRDNAKNTVYLQMNSLKPEDTAVYYCAAKTYQQQIVRPMYYWGQGTQVTVSS”, the “polyreactivity (PSR sort gate)” value was “high polyreactivity”.
In the case of “QVQLVESGVGLVQAGGSLRLSCAASGITFDYYAMGLYRQAPGKERELVAAIRKSGGSTYYADSVKGRFTISRDNAKNTVYLQMNSLKPEDTAVYYCAAGVRSPFRGGYYWGQGTQVTVSS”, the “polyreactivity (PSR sort gate)” value is reported as “high polyreactivity”.
For “QVQLVESGVGLVQAGGSLRLSCAASGITFPGYAMGWYRQAPGKERELVAVIRKSGTSTYYADSVKGRFTISRDNAKNTVYLQMNSLKPEDTAVYYCAAGGPSTLDDYWGQGTQVTVSS”, the “polyreactivity (PSR sort gate)” value was “low polyreactivity”.
For “QVQLVESGVGLVQAGGSLRLSCAASGLIFRPYTMGWDRQAPGKERELVATITGSGASTNYADSVKGRFTISRDNAKNTLYLQMNSLKPEDTAVYYCKGRSYSRMYYWGQGTQVTVSS”, the “polyreactivity (PSR sort gate)” value was “high polyreactivity”.
In the case of “QVQLVESGVGLVQAGGSLRLSCAASGRIFAYNAMGWYRQAPGKERELVAAISSSDDDTYYADSVKGRFTISRDNAKNTVYLQMNSLKPEDTAGYYCAAEWDTDRLWAGPRGSLYDYWGQGTQVTVSS”, the “polyreactivity (PSR sort gate)” value is reported as “high polyreactivity”.
With “QVQLVESGVGLVQAGGSLRLSCAASGRIFAYYAMGWYRQAPGKERELVAAISSGGTTNYADSVKGRFTISRDNAKNTVYLQMNSLKPEDTAVYYCNADGWRRSRQYYYWGQGTQVTVSS” the “polyreactivity (PSR sort gate)” value was “low polyreactivity”.
For “QVQLVESGVGLVQAGGSLRLSCAASGRIFNRNAMGWYRQAPGKERELVAAISHSVGSTYADSVKGRFTLSRDNAKNTVYLQMNSLKPEDTAVYYCAAKYYFEWNSALDYWGQGTQVTVSS”, the “polyreactivity (PSR sort gate)” value was “low polyreactivity”.
In the case of “QVQLVESGVGLVQAGGSLRLSCAASGRIFRYYTMGRYRHAPGKERELVAAITKSGGRTYYADSVKGRFTISRDTANNTVYLQMNSLKPEDTAVYYCAARRLYWGQGTQVTVSS”, the “polyreactivity (PSR sort gate)” value is reported as “high polyreactivity”.
For “QVQLVESGVGLVQAGGSLRLSCAASGRIFSRYTMGWYRQAPGKERELVAAIRYSGGLTYYADSVKGRFTISRDNAKNTVYLQMNSLKPEDTAVYYCATQVYLGYDKLYGYWGQGTQVTVSS”, the “polyreactivity (PSR sort gate)” value was “high polyreactivity”.
With “QVQLVESGVGLVQAGGSLRLSCAASGRIFTYYAMGWYRQAPGKERELVAVISSVGGTYYADSVKGRFTISRDNAKNTVYLQMNSLKPEDTAVYYCAVGKIWSRRSSTSRFGYWGQGTQVTVSS” the “polyreactivity (PSR sort gate)” value was “high polyreactivity”.
For “QVQLVESGVGLVQAGGSLRLSCAASGRSFGPYAMGWYSQAPGKERELVAAISSSGGSTYYADSVKGRFTISRDNAKNNVYLQMNSLKPEDTAVYYCATYFARGYNSWGQGTQVTVSS”, the “polyreactivity (PSR sort gate)” value was “high polyreactivity”.
For “QVQLVESGVGLVQAGGSLRLSCAASGRTFGSNAMGWYRQAPGKERELVAAISRVGSTYYADSVKGRFTISRDNAKNTVYLQMNSLKPEDTAVYYCPYDYWGQGTQVTVSS”, the “polyreactivity (PSR sort gate)” value was “low polyreactivity”.
For “QVQLVESGVGLVQAGGSLRLSCAASGRTFNSYAMGWYRQAPGKERELVATISSRGGNTFYADSLKGRCTISRDNAKNTVYLQMNSLKPEDTAVYYCAARRGVRKYPSAGYEYWGQGTQVTVSS”, the “polyreactivity (PSR sort gate)” value was “high polyreactivity”.
In the case of “QVQLVESGVGLVQAGGSLRLSCAASGRTFSRNAMGWYRQSPGKERELVATISRGGGITFYADSVKGRFTISRDNAKNNVYLQMKSLKPEDTAVYYCNADVRYVGLRRIVDYWGLGTQVTVSS”, the “polyreactivity (PSR sort gate)” value is reported as “high polyreactivity”.
With “QVQLVESGVGLVQAGGSLRLSCAASGRTFWSYAMGLYRQAPGKERELVAAISRGGSRTYYADSVKGRFTISRDNAKNTVYLQMNSLKPEDTAVYYCAADPTASGHFLGQVDYWGQGTQVTVSS” the “polyreactivity (PSR sort gate)” value was “high polyreactivity”.
For “QVQLVESGVGLVQAGGSLRLSCAASGSIFDPYAMGWYRQPPGKERELVAAIPYSVGGTTYYADSVKGRFTISRDTAKNTVYLQMNSLKPEHTAVNYCAAEWWGNPFDYWGQGTQVTVST”, the “polyreactivity (PSR sort gate)” value was “high polyreactivity”.
For “QVQLVESGVGLVQAGGSLRLSCAASGSIFGLYAMGCYRQAPGKERELVAAISTSDTSTYYADSVKGRFTISRDNAKNTVYLQMTSLKQEDTAVYYCAADTYDNFDYSGQGTQVTVSS”, the “polyreactivity (PSR sort gate)” value was “low polyreactivity”.
With “QVQLVESGVGLVQAGGSLRLSCAASGSPFRRNALGWYRQAPGKERELVAAITWRGTSTYYADSVKGRFTISRDNAKNTVYLQMNSLIPEDTAVYYFATSKSRLRYDYWGQGTQVTVSS” the “polyreactivity (PSR sort gate)” value was “high polyreactivity”.
With “QVQLVESGVGLVQAGGSLRLSCAASGSTFRYNAMVWYRQAPGKERELVAAITGSGDRTFYADSVKGRFTISRDNAKNTVYLQMNSLKPVDTAVYYCAARSRYPFSYGYYYWGQGTQVSVSS” the “polyreactivity (PSR sort gate)” value was “high polyreactivity”.
With “QVQLVESGVGLVQAGGSLRLSCAASGSTFTYYAMGWYRQAPGKESELVAAITASGTSTYYPDSVKGRFTISRDYAKNTVYLQMNSLKPEDTAVYYCAATRFKWTRIYPYYTGQGYNYWGQGTQVTVSS” the “polyreactivity (PSR sort gate)” value was “high polyreactivity”.
For “QVQLVESGVGLVQAGGSLRLSCAASGSTFWAYAMGWYRQAPGKERELVAAITTGGGRTFYADSVKGRFTISRDNAKNTVYLQMNSLKPEETAVYYFAAVSQSYRMYYWGQGTQVTVSS”, the “polyreactivity (PSR sort gate)” value was “low polyreactivity”.
In the case of “QVQLVESGVGLVQAGGSLRLSCAASGSTFWLYAMGWYRQAPGKERELVASISSRGGSTYYADSVKGRFTISRDNAKNTVYLQMNSLKPEDTAVYYCAAKDIRYDDDYWGQGTQVTVSS”, the “polyreactivity (PSR sort gate)” value is reported as “low polyreactivity”.
In the case of “QVQLVESGVGLVQAGGSLRLSCAASGSTFYQYAIGWYRQAPVKERELVAAISKSGGSTYYADSVKGRFTISRDNAKNTVYLQMNSLKPEDTAVYYCATRWIKGRKMDYWGHGTQVTVSS”, the “polyreactivity (PSR sort gate)” value is reported as “high polyreactivity”.
For “QVQLVESGVGLVQAGGSLRLSCAASGSTLPYYAMGWYRQAHGKERQMVAAITTSGGDTYSADSVKGRFTISRDNAKNTVYLQMNSLKPEDTAVYYCAISYSARSTVRKLFYFAYDYWGQGTQVTVSS”, the “polyreactivity (PSR sort gate)” value was “low polyreactivity”.
With “QVQLVESGVGLVQAGGSLRLSCAASGTTFSQYAMGGYRQAPGKERELVAAIDWSGGSTYYADSVKGRFTISRDNAKNTVYLQMNSLKPVDTAVYYCNTLRFRSFYLYGYWGQGTQVTVSS” the “polyreactivity (PSR sort gate)” value was “high polyreactivity”.
For “QVQLVESGVGLVQAGGSLRLSCAATGFTFYWYTMGWYIQAPGKERELVAAISASGGRTYYADSVKGRFTISRDNAKNTVYLQMNSLKPEDTAVYYCAARFRTWGNREAGYYWGQGTQVTVSS”, the “polyreactivity (PSR sort gate)” value was “high polyreactivity”.
With “QVQLVESGVGLVQAGGSLRLSCAATGSILSINGMGWYIPAPGKERELVATIDGSDGSTFYADSVKGRFTISRDNAKNTVFLQMNSLNPEDTEVYYCADENFWQTKEYDYWGQGTQVTVSS” the “polyreactivity (PSR sort gate)” value was “low polyreactivity”.
With “QVQLVESGVGLVQAGGSLRLSCASSGFIFDTYAMGLYRQAPGKERELVAVISSGGSTYYADSVKGRFTISRDNAKNTVYLQMNSLKPEDTAVYYCAADSGYLGIYGDEYSWGQGTQVTVSS” the “polyreactivity (PSR sort gate)” value was “low polyreactivity”.
In the case of “QVQLVESGVGLVQAGRSLRLSCAASGFTFGAYAMGWYRQAPGKERELVAAITRRGGSTYYADSVKGRFTISRDNAKNTVYLQMNSLKPEDTAVYYCAARRGRVLTKVSGYYSWGQGTQVTVSS”, the “polyreactivity (PSR sort gate)” value is reported as “high polyreactivity”.
In the case of “QVQLVESGVGLVQAGRSLRLSCAATGIIFRDNARGSNRQAPGKERELVAANSKSGGRTYYADSVKGRFTISRDNAKNTVYLQMNSLKPDDTAVYYCAKASRYWSLYYWGQGTQVTVSS”, the “polyreactivity (PSR sort gate)” value is reported as “high polyreactivity”.
In the case of “QVQLVESGVGLVQARGSLPLSCAASGFIFNTMGWYRQAPGKERELVATISWSDGSTYYADSVKGRFTISRDNAKNTVYLQMNTLKPEDTAVYYCAATTDALVGRPRYDYWGQGTQVTVSS”, the “polyreactivity (PSR sort gate)” value is reported as “low polyreactivity”.
For “QVQLVESGVGLVQAVVSLRISCAASGSNFNYYAMGWYRQAPGKERELVAAISGSGATTYYADSVKGRFTISRDNAKNTVYLQMNSLKPEDTAVYYCATTRRWYIGYDYWGQGTQVTVSS”, the “polyreactivity (PSR sort gate)” value was “high polyreactivity”.
In the case of “QVQLVESGVGLVQGGGSLRLTCAASGYTFPRYTKGWYRQPPGKERELVASINWSGGSTYYADSVKGRFTISRDNAKNNVYLQMNCLKPDDTAVYFCNKAYVSRYDYWGQGSQVTVSS”, the “polyreactivity (PSR sort gate)” value is reported as “high polyreactivity”.
With “QVQLVESLGGLVQAGGSLRLSCAASGITFGWYAMGWYRQAPGQERELVAAISPAGSTYYADSVKGRFTISRDNAKNTVYLQMNSLKPEDTAVYYWRYSAFRFSAMGYWGHGTQVTVSS” the “polyreactivity (PSR sort gate)” value was “high polyreactivity”.
For “QVQLVESLVGLDQAGGSLRLSCSASGFTIPRYAMGWSRQAHGKESELVAAITSGGSTYYADSVKGRFTISRDNAKNNVYLQMNSLKTEVTAVYFCAADGLCGSRFYSWGLGTQVTVSS”, the “polyreactivity (PSR sort gate)” value was “high polyreactivity”.
For “QVQLVESRGALVQAGGSLRLSCAASGSTIDAYAMGWYRQAPGKERELVAAITRSGGRTYYADSVKGRFTISRDYAKNTVFLQMNSLKPVDTAVFYCNAYCVYVRGEFWGQGTQVTVSS”, the “polyreactivity (PSR sort gate)” value was “high polyreactivity”.

Reference: the nanobody polyreactivity screen of Harvey et al. (2022)
